Reference: IntAct's records for PubMed 29892012

Assays:
rpia_human RPIA = rpia_human RPIA (UniProt P49247)
ar6p1_human ARL6IP1 = ar6p1_human ARL6IP1 (UniProt Q15041)
trim1_human MID2 = molecular target: T1, trim1_human MID2 (UniProt Q9UJV3)
T1 sequence: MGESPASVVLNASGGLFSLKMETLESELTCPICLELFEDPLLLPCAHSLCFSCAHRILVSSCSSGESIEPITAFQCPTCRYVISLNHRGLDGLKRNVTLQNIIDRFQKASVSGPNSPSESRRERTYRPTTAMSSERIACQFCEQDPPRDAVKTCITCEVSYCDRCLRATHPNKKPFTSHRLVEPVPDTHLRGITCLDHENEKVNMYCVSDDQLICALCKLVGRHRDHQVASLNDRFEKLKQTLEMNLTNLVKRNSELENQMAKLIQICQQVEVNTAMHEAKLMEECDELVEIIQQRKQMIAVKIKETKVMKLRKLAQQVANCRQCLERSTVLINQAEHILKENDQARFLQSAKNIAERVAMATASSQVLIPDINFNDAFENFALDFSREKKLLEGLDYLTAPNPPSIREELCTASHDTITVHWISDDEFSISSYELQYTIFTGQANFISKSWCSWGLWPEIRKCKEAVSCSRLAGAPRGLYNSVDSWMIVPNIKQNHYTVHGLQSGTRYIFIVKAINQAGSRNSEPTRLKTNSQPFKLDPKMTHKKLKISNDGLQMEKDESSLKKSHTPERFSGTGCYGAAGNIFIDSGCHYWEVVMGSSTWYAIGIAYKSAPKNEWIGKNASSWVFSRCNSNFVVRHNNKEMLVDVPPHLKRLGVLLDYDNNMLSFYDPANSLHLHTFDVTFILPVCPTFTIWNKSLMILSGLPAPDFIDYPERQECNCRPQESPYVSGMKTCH

pnma5_human PNMA5 = pnma5_human PNMA5 (UniProt Q96PV4)
nup62_human NUP62 = nup62_human NUP62 (UniProt P37198)
prps1_human PRPS1 = molecular target: T2, prps1_human PRPS1 (UniProt P60891)
T2 sequence: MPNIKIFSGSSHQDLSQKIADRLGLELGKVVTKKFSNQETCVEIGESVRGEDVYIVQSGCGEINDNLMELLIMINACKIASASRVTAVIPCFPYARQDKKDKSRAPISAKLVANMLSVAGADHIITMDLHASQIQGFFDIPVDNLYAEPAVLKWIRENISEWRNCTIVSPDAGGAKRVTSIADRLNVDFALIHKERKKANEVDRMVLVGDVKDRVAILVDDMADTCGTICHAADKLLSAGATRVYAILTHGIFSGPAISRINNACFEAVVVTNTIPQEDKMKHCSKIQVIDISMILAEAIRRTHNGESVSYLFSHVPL

kctd9_human KCTD9 = molecular target: T3, kctd9_human KCTD9 (UniProt Q7L273)
T3 sequence: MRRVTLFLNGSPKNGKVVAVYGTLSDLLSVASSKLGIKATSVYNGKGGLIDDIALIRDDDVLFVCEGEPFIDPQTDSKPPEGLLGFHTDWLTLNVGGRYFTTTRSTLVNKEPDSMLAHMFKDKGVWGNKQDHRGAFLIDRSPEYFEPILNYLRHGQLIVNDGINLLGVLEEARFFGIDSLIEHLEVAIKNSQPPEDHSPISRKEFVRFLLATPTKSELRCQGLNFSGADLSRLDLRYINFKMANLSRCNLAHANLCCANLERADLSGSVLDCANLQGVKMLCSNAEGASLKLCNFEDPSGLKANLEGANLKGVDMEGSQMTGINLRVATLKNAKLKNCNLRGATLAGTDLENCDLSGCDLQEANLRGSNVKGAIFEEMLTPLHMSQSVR

lonf1_human LONRF1 = molecular target: T4, lonf1_human LONRF1 (UniProt Q17RB8)
T4 sequence: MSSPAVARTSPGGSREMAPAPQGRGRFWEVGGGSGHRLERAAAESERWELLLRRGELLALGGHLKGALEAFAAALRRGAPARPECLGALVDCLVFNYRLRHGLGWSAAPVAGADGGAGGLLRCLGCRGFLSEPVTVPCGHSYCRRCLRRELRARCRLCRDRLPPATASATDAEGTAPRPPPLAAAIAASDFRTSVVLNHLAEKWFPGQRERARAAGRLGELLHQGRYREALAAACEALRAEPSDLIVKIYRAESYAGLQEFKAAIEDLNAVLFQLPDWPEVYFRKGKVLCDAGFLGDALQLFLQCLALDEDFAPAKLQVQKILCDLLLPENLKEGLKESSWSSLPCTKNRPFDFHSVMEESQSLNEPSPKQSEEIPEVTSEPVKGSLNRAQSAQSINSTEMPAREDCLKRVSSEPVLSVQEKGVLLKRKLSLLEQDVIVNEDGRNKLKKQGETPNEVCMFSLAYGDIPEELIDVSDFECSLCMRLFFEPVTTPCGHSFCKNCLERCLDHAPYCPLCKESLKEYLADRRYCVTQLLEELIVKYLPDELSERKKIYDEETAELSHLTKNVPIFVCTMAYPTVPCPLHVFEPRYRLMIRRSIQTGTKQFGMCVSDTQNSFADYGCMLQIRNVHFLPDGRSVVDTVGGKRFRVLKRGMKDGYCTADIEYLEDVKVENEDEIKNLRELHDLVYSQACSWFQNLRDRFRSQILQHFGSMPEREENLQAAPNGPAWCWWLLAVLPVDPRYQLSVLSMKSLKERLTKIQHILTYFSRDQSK

zbt14_human ZBTB14 = molecular target: T5, zbt14_human ZBTB14 (UniProt O43829)
T5 sequence: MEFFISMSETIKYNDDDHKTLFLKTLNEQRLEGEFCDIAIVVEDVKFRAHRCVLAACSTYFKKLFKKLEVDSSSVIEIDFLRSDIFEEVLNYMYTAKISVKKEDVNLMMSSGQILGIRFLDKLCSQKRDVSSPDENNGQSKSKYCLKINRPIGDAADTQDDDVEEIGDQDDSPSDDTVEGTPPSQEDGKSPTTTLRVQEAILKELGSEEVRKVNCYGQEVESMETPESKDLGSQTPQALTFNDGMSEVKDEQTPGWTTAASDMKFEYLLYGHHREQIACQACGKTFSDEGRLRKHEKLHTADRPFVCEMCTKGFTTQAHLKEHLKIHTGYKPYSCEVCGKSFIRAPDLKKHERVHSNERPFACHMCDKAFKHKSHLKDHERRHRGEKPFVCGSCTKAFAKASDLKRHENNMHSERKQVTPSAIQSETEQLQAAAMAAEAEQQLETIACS

Chain of ar6p1_human ARL6IP1 (Q15041 whole entry): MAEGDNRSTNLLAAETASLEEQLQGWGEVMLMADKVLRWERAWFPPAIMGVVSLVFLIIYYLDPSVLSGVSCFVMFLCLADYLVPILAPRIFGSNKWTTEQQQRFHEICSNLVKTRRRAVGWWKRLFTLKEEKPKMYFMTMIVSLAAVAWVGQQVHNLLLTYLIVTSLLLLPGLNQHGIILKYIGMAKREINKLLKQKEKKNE
Chain of pnma5_human PNMA5 (Q96PV4 whole entry): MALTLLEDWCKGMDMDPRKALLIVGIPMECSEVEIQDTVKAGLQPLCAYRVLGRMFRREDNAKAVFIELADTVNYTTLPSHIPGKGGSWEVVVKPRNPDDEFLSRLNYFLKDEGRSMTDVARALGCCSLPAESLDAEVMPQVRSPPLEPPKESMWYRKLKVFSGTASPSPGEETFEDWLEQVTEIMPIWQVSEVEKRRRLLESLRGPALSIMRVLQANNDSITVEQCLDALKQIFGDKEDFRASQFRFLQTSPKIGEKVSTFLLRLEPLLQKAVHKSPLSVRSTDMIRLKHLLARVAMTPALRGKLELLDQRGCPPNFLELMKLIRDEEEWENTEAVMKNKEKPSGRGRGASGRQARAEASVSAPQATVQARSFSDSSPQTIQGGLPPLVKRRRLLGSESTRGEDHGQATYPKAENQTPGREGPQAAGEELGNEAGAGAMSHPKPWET
Chain of nup62_human NUP62 (P37198 whole entry): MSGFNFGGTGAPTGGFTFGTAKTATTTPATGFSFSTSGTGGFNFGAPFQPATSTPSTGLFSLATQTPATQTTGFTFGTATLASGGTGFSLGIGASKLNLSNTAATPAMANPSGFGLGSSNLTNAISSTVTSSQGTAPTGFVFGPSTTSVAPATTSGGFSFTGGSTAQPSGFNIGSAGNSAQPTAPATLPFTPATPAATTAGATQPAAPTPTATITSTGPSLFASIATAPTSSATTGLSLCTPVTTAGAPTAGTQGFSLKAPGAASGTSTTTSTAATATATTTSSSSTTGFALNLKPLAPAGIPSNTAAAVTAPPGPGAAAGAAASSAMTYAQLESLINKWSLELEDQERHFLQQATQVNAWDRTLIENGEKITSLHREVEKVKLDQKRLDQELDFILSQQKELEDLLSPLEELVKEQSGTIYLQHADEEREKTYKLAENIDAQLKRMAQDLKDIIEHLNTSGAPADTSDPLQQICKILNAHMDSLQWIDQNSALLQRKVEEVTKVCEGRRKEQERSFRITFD
Chain of rpia_human RPIA (P49247 whole entry): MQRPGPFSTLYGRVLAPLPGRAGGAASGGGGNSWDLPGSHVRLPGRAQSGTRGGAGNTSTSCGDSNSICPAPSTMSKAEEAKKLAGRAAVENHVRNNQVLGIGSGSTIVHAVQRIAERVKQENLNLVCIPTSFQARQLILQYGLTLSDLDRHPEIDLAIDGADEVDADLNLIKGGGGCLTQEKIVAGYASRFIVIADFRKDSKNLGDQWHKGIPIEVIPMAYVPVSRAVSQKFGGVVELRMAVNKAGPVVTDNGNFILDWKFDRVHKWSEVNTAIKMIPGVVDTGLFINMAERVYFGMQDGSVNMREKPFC

effect of a mutation on the interaction (rpia_human RPIA): with no effect | effect of a mutation on the interaction (ar6p1_human ARL6IP1): with no effect | effect of a mutation on the interaction (trim1_human MID2): with no effect | effect of a mutation on the interaction (pnma5_human PNMA5): with no effect | effect of a mutation on the interaction (nup62_human NUP62): disrupting interaction strength | effect of a mutation on the interaction (prps1_human PRPS1): with no effect | effect of a mutation on the interaction (kctd9_human KCTD9): with no effect | effect of a mutation on the interaction (lonf1_human LONRF1): with no effect | effect of a mutation on the interaction (zbt14_human ZBTB14): with no effect
Substance: Golgi reassembly-stacking protein 2 (Homo sapiens) (from UniProt Q9H8Y8) L320R
